# Test results as given in article PMC9817130, “Structural insights into broadly neutralizing antibodies elicited by hybrid immunity against SARS-CoV-2” (Emerging Microbes & Infections, 2023).
# B1: LY-CoV1404 (Bebtelovimab) (antibody, V domains shown)
# VH: QITLKESGPTLVKPTQTLTLTCTFSGFSLSISGVGVGWLRQPPGKALEWLALIYWDDDKRYSPSLKSRLTISKDTSKNQVVLKMTNIDPVDTATYYCAHHSISTIFDHWGQGTLVTVSS
# VL: QSALTQPASVSGSPGQSITISCTATSSDVGDYNYVSWYQQHPGKAPKLMIFEVSDRPSGISNRFSGSKSGNTASLTISGLQAEDEADYYCSSYTTSSAVFGGGTKLTVL
# notes: also called class III LY-CoV1404
# Target: T1, SARS-CoV-2 WT RBD protein (Sino Biological) (SARS-CoV-2 WT, UniProt P0DTC2)
# T1 construct: also called viral RBD; immobilized RBD
# Assay: SPR
# Details: both partners purified
binder,measurement,value
B1,binding result,binds
